# Results taken from doi:10.1101/2025.08.28.672883 (2025).
# Several values for one entry are separate records, joined by “and”; a condition that tells them apart may be missing. Equal values may be shown once.
# Molecular target: SARS-CoV-2 spike receptor-binding domain, prototype (RBD-WT) (SARS-CoV-2, UniProt P0DTC2 333-528)
# Experiment: BLI
binder,measurement,value
"VYD222 Fab (Fab, V domains shown) VH: EVQLVESGGGLVKPGGSLRLSCAASGFTFGSYEMNWVRQAPGKGLEWVSSISEDGYSTYYPDSLKGRFTISRDSAKNSLYLQMNSLRADDTAVYYCARDFGGDTAWAGTGFTYWGQGTLVTVSS VL: QSVLTQPPSVSGAPGQRITISCTGSSSNIGAGYDVHWYQQLPGTAPKLLIYGSSSRNYGVPDRFSGSKSGTSASLAITGLQAEDEADYYCQSYDSDLGVLYTFGTGTKVTVL",Kd,5.4 nM and 5 nM
"ADI-77310 Fab (Fab, V domains shown) VH: EVQLVESGGGLVKPGGSLRLSCAASGFTFGSYYMNWVRQAPGKGLEWVSSISEDGYSTYYPDSLKGRFTISRDSAKNSLYLQMNSLRADDTAVYYCARDFGGHTAWAGTGFTYWGQGTLVTVSS VL: QSVLTQPPSVSGAPGQRITISCTGSSSNIGAGYDVHWYQQLPGTAPKLLIYGSSSRNSGVPDRFSGSKSGTSASLAITGLQAEDEADYYCQSYDSDLSVLYTFGTGTKVTVL",Kd,1 nM and 0.8 nM
